Test results: IntAct's records for PubMed 31515488

B1: Multifunctional procollagen lysine hydroxylase and glycosyltransferase LH3 (Homo sapiens), O60568 (parent)
chain: MTSSGPGPRFLLLLPLLLPPAASASDRPRGRDPVNPEKLLVITVATAETEGYLRFLRSAEFFNYTVRTLGLGEEWRGGDVARTVGGGQKVRWLKKEMEKYADREDMIIMFVDSYDVILAGSPTELLKKFVQSGSRLLFSAESFCWPEWGLAEQYPEVGTGKRFLNSGGFIGFATTIHQIVRQWKYKDDDDDQLFYTRLYLDPGLREKLSLNLDHKSRIFQNLNGALDEVVLKFDRNRVRIRNVAYDTLPIVVHGNGPTKLQLNYLGNYVPNGWTPEGGCGFCNQDRRTLPGGQPPPRVFLAVFVEQPTPFLPRFLQRLLLLDYPPDRVTLFLHNNEVFHEPHIADSWPQLQDHFSAVKLVGPEEALSPGEARDMAMDLCRQDPECEFYFSLDADAVLTNLQTLRILIEENRKVIAPMLSRHGKLWSNFWGALSPDEYYARSEDYVELVQRKRVGVWNVPYISQAYVIRGDTLRMELPQRDVFSGSDTDPDMAFCKSFRDKGIFLHLSNQHEFGRLLATSRYDTEHLHPDLWQIFDNPVDWKEQYIHENYSRALEGEGIVEQPCPDVYWFPLLSEQMCDELVAEMEHYGQWSGGRHEDSRLAGGYENVPTVDIHMKQVGYEDQWLQLLRTYVGPMTESLFPGYHTKARAVMNFVVRYRPDEQPSLRPHHDSSTFTLNVALNHKGLDYEGGGCRFLRYDCVISSPRKGWALLHPGRLTHYHEGLPTTWGTRYIMVSFVDP
partner: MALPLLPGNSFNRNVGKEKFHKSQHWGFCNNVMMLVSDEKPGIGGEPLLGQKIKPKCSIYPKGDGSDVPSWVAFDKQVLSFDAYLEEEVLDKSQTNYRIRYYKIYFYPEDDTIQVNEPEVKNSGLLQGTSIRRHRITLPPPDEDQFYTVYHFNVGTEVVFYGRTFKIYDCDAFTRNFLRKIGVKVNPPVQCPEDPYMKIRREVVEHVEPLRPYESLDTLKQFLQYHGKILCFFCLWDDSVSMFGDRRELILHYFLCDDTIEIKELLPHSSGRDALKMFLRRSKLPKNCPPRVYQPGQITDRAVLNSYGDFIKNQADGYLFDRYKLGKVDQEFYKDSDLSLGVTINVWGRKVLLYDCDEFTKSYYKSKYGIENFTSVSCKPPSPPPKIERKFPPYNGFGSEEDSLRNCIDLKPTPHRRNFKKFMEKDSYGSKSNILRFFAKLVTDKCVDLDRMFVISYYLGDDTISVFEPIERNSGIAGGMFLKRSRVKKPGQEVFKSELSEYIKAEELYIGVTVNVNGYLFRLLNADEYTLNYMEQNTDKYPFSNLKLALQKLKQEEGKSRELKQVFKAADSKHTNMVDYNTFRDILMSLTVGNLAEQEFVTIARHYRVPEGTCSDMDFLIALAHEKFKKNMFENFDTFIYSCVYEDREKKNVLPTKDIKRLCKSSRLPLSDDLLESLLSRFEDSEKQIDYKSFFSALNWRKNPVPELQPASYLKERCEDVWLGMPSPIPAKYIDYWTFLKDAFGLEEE
B2: Tektin-4 (Homo sapiens), Q8WW24 (parent)
chain: MAQTVPPCELPCKEYDVARNTGAYTSSGLATASFRTSKYLLEEWFQNCYARYHQAFADRDQSERQRHESQQLATETQALAQRTQQDSTRTVGERLQDTHSWKSELQREMEALAAETNLLLAQKQRLERALDATEVPFSITTDNLQCRERREHPNLVRDHVETELLKEAELIRNIQELLKRTIMQAVSQIRLNREHKETCEMDWSDKMEAYNIDETCGRHHSQSTEVQAHPYSTTFQESASTPETRAKFTQDNLCRAQRERLASANLRVLVDCILRDTSEDLRLQCDAVNLAFGRRCEELEDARYKLHHHLHKTLREITDQEHNVAALKQAIKDKEAPLHVAQTRLYLRSHRPNMELCRDAAQFRLLSEVEELNMSLTALREKLLEAEQSLRNLEDIHMSLEKDIAAMTNSLFIDRQKCMAHRTRYPTILQLAGYQ
partner: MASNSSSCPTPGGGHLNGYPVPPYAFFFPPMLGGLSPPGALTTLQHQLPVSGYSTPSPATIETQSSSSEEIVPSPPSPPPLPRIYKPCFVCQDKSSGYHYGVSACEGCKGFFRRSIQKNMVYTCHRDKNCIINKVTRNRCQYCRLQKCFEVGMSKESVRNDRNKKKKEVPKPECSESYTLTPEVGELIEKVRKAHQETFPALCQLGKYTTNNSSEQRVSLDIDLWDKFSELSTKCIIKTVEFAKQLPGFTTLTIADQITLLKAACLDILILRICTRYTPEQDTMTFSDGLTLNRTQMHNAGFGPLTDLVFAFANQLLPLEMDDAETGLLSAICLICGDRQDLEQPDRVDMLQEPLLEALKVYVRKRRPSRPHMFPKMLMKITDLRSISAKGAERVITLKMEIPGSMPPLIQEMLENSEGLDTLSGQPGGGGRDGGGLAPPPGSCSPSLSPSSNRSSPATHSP
B3: Nuclear receptor-interacting protein 1 (Homo sapiens), P48552 (parent)
chain: MTHGEELGSDVHQDSIVLTYLEGLLMHQAAGGSGTAVDKKSAGHNEEDQNFNISGSAFPTCQSNGPVLNTHTYQGSGMLHLKKARLLQSSEDWNAAKRKRLSDSIMNLNVKKEALLAGMVDSVPKGKQDSTLLASLLQSFSSRLQTVALSQQIRQSLKEQGYALSHDSLKVEKDLRCYGVASSHLKTLLKKSKVKDQKPDTNLPDVTKNLIRDRFAESPHHVGQSGTKVMSEPLSCAARLQAVASMVEKRASPATSPKPSVACSQLALLLSSEAHLQQYSREHALKTQNANQAASERLAAMARLQENGQKDVGSYQLPKGMSSHLNGQARTSSSKLMASKSSATVFQNPMGIIPSSPKNAGYKNSLERNNIKQAANNSLLLHLLKSQTIPKPMNGHSHSERGSIFEESSTPTTIDEYSDNNPSFTDDSSGDESSYSNCVPIDLSCKHRTEKSESDQPVSLDNFTQSLLNTWDPKVPDVDIKEDQDTSKNSKLNSHQKVTLLQLLLGHKNEENVEKNTSPQGVHNDVSKFNTQNYARTSVIESPSTNRTTPVSTPPLLTSSKAGSPINLSQHSLVIKWNSPPYVCSTQSEKLTNTASNHSMDLTKSKDPPGEKPAQNEGAQNSATFSASKLLQNLAQCGMQSSMSVEEQRPSKQLLTGNTDKPIGMIDRLNSPLLSNKTNAVEENKAFSSQPTGPEPGLSGSEIENLLERRTVLQLLLGNPNKGKSEKKEKTPLRDESTQEHSERALSEQILMVKIKSEPCDDLQIPNTNVHLSHDAKSAPFLGMAPAVQRSAPALPVSEDFKSEPVSPQDFSFSKNGLLSRLLRQNQDSYLADDSDRSHRNNEMALLESKNLCMVPKKRKLYTEPLENPFKKMKNNIVDAANNHSAPEVLYGSLLNQEELKFSRNDLEFKYPAGHGSASESEHRSWARESKSFNVLKQLLLSENCVRDLSPHRSNSVADSKKKGHKNNVTNSKPEFSISSLNGLMYSSTQPSSCMDNRTFSYPGVVKTPVSPTFPEHLGCAGSRPESGLLNGCSMPSEKGPIKWVITDAEKNEYEKDSPRLTKTNPILYYMLQKGGNSVTSRETQDKDIWREASSAESVSQVTAKEELLPTAETKASFFNLRSPYNSHMGNNASRPHSANGEVYGLLGSVLTIKKESE
partner: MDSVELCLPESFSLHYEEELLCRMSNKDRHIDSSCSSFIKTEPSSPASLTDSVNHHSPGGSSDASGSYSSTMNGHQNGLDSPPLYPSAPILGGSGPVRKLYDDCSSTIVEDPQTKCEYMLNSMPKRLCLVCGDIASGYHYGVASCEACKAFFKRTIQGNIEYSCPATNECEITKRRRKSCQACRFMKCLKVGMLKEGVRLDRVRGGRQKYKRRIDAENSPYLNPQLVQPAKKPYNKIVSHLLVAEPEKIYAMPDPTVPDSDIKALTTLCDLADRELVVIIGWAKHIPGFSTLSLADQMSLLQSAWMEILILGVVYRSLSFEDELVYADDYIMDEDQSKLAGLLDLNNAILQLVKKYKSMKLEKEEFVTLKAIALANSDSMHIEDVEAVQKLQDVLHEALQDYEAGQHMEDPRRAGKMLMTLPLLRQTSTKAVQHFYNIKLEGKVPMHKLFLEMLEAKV
B4: Isoform 1 of Acetyl-CoA acetyltransferase, cytosolic (Homo sapiens), Q9BWD1-1 (parent)
chain: MNAGSDPVVIVSAARTIIGSFNGALAAVPVQDLGSTVIKEVLKRATVAPEDVSEVIFGHVLAAGCGQNPVRQASVGAGIPYSVPAWSCQMICGSGLKAVCLAVQSIGIGDSSIVVAGGMENMSKAPHLAYLRTGVKIGEMPLTDSILCDGLTDAFHNCHMGITAENVAKKWQVSREDQDKVAVLSQNRTENAQKAGHFDKEIVPVLVSTRKGLIEVKTDEFPRHGSNIEAMSKLKPYFLTDGTGTVTPANASGINDGAAAVVLMKKSEADKRGLTPLARIVSWSQVGVEPSIMGIGPIPAIKQAVTKAGWSLEDVDIFEINEAFAAVSAAIVKELGLNPEKVNIEGGAIALGHPLGASGCRILVTLLHTLERMGRSRGVAALCIGGGMGIAMCVQRE
B5: "Delta(3,5)-Delta(2,4)-dienoyl-CoA isomerase, mitochondrial" (Homo sapiens), Q13011 (parent)
chain: MAAGIVASRRLRDLLTRRLTGSNYPGLSISLRLTGSSAQEEASGVALGEAPDHSYESLRVTSAQKHVLHVQLNRPNKRNAMNKVFWREMVECFNKISRDADCRAVVISGAGKMFTAGIDLMDMASDILQPKGDDVARISWYLRDIITRYQETFNVIERCPKPVIAAVHGGCIGGGVDLVTACDIRYCAQDAFFQVKEVDVGLAADVGTLQRLPKVIGNQSLVNELAFTARKMMADEALGSGLVSRVFPDKEVMLDAALALAAEISSKSPVAVQSTKVNLLYSRDHSVAESLNYVASWNMSMLQTQDLVKSVQATTENKELKTVTFSKL

Variants of: B1
Settings: with efhc2_human EFHC2, Q5JST6

effect of a mutation on the interaction	Variant
disrupting interaction strength	A492V

Variants of: B2
Settings: with rara_human RARA

effect of a mutation on the interaction	Variant
with no effect	D403N
with no effect	N409K
with no effect	M374T
disrupting interaction strength	I404T

Second part, the variant before the results:

Variant	effect of a mutation on the interaction
R64W	with no effect
A80V	disrupting interaction strength
C272S	disrupting interaction strength

Variants of: B3
Settings: with err3_human ESRRG

effect of a mutation on the interaction	Variant
with no effect	K385I

Variants of: B4
Settings: with lnx1_human LNX1, Q8TBB1
lnx1_human LNX1, Q8TBB1, sequence (Q8TBB1 whole entry): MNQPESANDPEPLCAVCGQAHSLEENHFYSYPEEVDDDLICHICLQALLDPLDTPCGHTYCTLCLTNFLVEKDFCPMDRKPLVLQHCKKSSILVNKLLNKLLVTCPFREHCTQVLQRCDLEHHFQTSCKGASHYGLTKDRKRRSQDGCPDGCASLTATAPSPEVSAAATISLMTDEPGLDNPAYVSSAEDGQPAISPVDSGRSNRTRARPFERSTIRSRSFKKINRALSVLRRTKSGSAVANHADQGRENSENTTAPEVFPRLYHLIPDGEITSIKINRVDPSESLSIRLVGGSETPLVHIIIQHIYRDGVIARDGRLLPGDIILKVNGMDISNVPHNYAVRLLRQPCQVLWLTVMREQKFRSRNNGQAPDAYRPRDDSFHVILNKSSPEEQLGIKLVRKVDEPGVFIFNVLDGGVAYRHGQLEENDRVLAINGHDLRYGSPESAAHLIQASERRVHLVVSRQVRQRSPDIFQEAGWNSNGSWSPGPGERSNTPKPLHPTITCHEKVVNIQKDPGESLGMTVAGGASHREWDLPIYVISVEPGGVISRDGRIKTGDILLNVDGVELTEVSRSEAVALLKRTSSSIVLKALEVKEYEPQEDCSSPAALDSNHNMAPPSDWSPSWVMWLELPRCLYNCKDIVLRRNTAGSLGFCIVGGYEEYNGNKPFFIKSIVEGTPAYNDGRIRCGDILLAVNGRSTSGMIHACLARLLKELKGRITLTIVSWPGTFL

effect of a mutation on the interaction	Variant
with no effect	G161S

Variants of: B5
Settings: with traf1_human TRAF1, Q13077
traf1_human TRAF1, Q13077, sequence (Q13077 whole entry): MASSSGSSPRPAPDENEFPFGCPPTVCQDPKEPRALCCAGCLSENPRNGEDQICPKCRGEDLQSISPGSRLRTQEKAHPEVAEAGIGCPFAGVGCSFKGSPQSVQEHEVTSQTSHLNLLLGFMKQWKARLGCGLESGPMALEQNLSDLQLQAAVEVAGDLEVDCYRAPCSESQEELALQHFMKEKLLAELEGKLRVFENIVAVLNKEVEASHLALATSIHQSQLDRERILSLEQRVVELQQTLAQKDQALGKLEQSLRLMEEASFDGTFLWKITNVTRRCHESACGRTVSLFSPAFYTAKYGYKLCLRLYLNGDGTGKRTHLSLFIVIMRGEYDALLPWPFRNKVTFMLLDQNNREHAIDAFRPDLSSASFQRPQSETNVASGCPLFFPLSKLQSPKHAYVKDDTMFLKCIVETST

effect of a mutation on the interaction	Variant
with no effect	E41A
